Patent US20210115100A1

Assays:
Assay in all cases: cell-based or functional assay
[1] = target: human mature BMP7 protein variant F9 (SEQ ID NO: 8) (human) (UniProt P18075)
[2] = target: wild type human pro-BMP7 (human) (UniProt P18075)
[3] = target: wild type human mature BMP7 (SEQ ID NO: 2) (human) (UniProt P18075)
[4] = target: human pro-BMP7 protein variant F9 (human) (UniProt P18075)
Sequence of human pro-BMP7 protein variant F9 (human) (P18075 other isoform, or with tags, fused parts or gaps mutant, chain 1 of 2): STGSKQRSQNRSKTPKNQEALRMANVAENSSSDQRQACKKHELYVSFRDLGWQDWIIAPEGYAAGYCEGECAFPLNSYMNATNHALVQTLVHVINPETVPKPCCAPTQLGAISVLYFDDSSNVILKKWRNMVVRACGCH
Sequence of human pro-BMP7 protein variant F9 (human) (P18075 other isoform, or with tags, fused parts or gaps mutant, chain 2 of 2): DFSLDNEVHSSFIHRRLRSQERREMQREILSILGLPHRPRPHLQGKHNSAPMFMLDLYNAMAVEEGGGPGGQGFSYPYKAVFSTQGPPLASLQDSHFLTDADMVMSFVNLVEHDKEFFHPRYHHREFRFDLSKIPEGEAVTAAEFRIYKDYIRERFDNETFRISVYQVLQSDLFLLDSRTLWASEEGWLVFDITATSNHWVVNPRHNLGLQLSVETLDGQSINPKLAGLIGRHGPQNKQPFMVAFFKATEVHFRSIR

Sequence of human mature BMP7 protein variant F9 (SEQ ID NO: 8) (human) (P18075 other isoform, or with tags, fused parts or gaps mutant): as the sequence (P18075 other isoform, or with tags, fused parts or gaps mutant, chain 1 of 2) above
Sequence of wild type human pro-BMP7 (human) (P18075 293-431, chain 1 of 2): as the sequence (P18075 other isoform, or with tags, fused parts or gaps mutant, chain 1 of 2) above, with G65Y, L86I, V93F, G110N, W128Y counted along it
Sequence of wild type human pro-BMP7 (human) (P18075 other isoform, or with tags, fused parts or gaps, chain 2 of 2): as the sequence (P18075 other isoform, or with tags, fused parts or gaps mutant, chain 2 of 2) above
Sequence of wild type human mature BMP7 (SEQ ID NO: 2) (human) (P18075 293-431): as the sequence (P18075 other isoform, or with tags, fused parts or gaps mutant, chain 1 of 2) above, with G65Y, L86I, V93F, G110N, W128Y counted along it

B1: Noggin (protein, UniProt Q13253 28-232, looked up, species assumed)
Noggin: QHYLHIRPAPSDNLPLVDLIEHPDPIFDPKEKDLNETLLRSLLGGHYDPGFMATSPPEDRPGGGGGAAGGAEDLAELDQLLRQRPSGAMPSEIKGLEFSEGLAQGKKQRLSKKLRRKLQMWLWSQTFCPVLYAWNDLGSRFWPRYVKVGSCFSKRSCSVPEGMVCKPSKSVHLTVLRWRCQRRGGQRCGWIPIQYPIISECKCSC
B1 gave a % inhibition, 0.01X molar excess of inhibitor (hepcidin promoter luciferase, Hep3B2 HepPro luc cells) [1] of -2.6%, a % inhibition, 0.1X molar excess of inhibitor (hepcidin promoter luciferase, Hep3B2 HepPro luc cells) [1] of -7.2% and a % inhibition, 1X molar excess of inhibitor (hepcidin promoter luciferase, Hep3B2 HepPro luc cells) [1] of -6.9%. For the same binder, the % inhibition, 10X molar excess of inhibitor (hepcidin promoter luciferase, Hep3B2 HepPro luc cells) [1] was -1.2%, the % inhibition, 0.1X molar excess of inhibitor (hepcidin promoter luciferase, Hep3B2 HepPro luc cells) [2] was -5.3% and the % inhibition, 1X molar excess of inhibitor (hepcidin promoter luciferase, Hep3B2 HepPro luc cells) [2] was 24.8%. It also gave a % inhibition, 10X molar excess of inhibitor (hepcidin promoter luciferase, Hep3B2 HepPro luc cells) [2] of 84.8%, a % inhibition, 100X molar excess of inhibitor (hepcidin promoter luciferase, Hep3B2 HepPro luc cells) [2] of 87.3% and a % inhibition, 0.1X molar excess of inhibitor (hepcidin promoter luciferase, Hep3B2 HepPro luc cells) [3] of -12.2%. For the same binder, the % inhibition, 1X molar excess of inhibitor (hepcidin promoter luciferase, Hep3B2 HepPro luc cells) [3] was 36.7%, the % inhibition, 10X molar excess of inhibitor (hepcidin promoter luciferase, Hep3B2 HepPro luc cells) [3] was 72.8% and the % inhibition, 100X molar excess of inhibitor (hepcidin promoter luciferase, Hep3B2 HepPro luc cells) [3] was 73.7%. It also gave a % inhibition, 0.1X molar excess of inhibitor (hepcidin promoter luciferase, Hep3B2 HepPro luc cells) [4] of -15.2%, a % inhibition, 1X molar excess of inhibitor (hepcidin promoter luciferase, Hep3B2 HepPro luc cells) [4] of -18.3% and a % inhibition, 10X molar excess of inhibitor (hepcidin promoter luciferase, Hep3B2 HepPro luc cells) [4] of -23.6%. For the same binder, the % inhibition, 100X molar excess of inhibitor (hepcidin promoter luciferase, Hep3B2 HepPro luc cells) [4] was -28.1%.

B2: Coco (protein, UniProt Q8N907 23-189, looked up, species assumed)
DAN domain family member 5: RPEPQSPRPQSWAAANQTWALGPGALPPLVPASALGSWKAFLGLQKARQLGMGRLQRGQDEVAAVTLPLNPQEVIQGMCKAVPFVQVFSRPGCSAIRLRNHLCFGHCSSLYIPGSDPTPLVLCNSCMPARKRWAPVVLWCLTGSSASRRRVKISTMLIEGCHCSPKA
Binder B2 has a % inhibition, 0.01X molar excess of inhibitor (hepcidin promoter luciferase, Hep3B2 HepPro luc cells) [1] of 2.3%, a % inhibition, 0.1X molar excess of inhibitor (hepcidin promoter luciferase, Hep3B2 HepPro luc cells) [1] of 7% and a % inhibition, 1X molar excess of inhibitor (hepcidin promoter luciferase, Hep3B2 HepPro luc cells) [1] of 7.3%. For the same binder, the % inhibition, 10X molar excess of inhibitor (hepcidin promoter luciferase, Hep3B2 HepPro luc cells) [1] was 28.5%, the % inhibition, 0.1X molar excess of inhibitor (hepcidin promoter luciferase, Hep3B2 HepPro luc cells) [2] was -10.2% and the % inhibition, 1X molar excess of inhibitor (hepcidin promoter luciferase, Hep3B2 HepPro luc cells) [2] was 4%. For the same binder, the % inhibition, 10X molar excess of inhibitor (hepcidin promoter luciferase, Hep3B2 HepPro luc cells) [2] was 17.4%, the % inhibition, 100X molar excess of inhibitor (hepcidin promoter luciferase, Hep3B2 HepPro luc cells) [2] was 81.6% and the % inhibition, 0.1X molar excess of inhibitor (hepcidin promoter luciferase, Hep3B2 HepPro luc cells) [3] was -23.6%. The % inhibition, 1X molar excess of inhibitor (hepcidin promoter luciferase, Hep3B2 HepPro luc cells) [3] was -25.9%, the % inhibition, 10X molar excess of inhibitor (hepcidin promoter luciferase, Hep3B2 HepPro luc cells) [3] was 37.6% and the % inhibition, 100X molar excess of inhibitor (hepcidin promoter luciferase, Hep3B2 HepPro luc cells) [3] was 77.4%. The % inhibition, 0.1X molar excess of inhibitor (hepcidin promoter luciferase, Hep3B2 HepPro luc cells) [4] was -35.4%, the % inhibition, 1X molar excess of inhibitor (hepcidin promoter luciferase, Hep3B2 HepPro luc cells) [4] was -27.5% and the % inhibition, 10X molar excess of inhibitor (hepcidin promoter luciferase, Hep3B2 HepPro luc cells) [4] was 7%.
